In publication doi:10.1101/2025.11.10.687524 (bioRxiv, 2025):

How the values were obtained:
[1] = target: BamA(S274C/C690S/C700S) (disulfide-crosslinked SurA–BAM complex 1) (E. coli, UniProt P0A940 21-810, S274C | C690S | C700S); assay: cryo-EM structure
[2] = target: BamA(C690S/C700S) (disulfide-crosslinked SurA–BAM complex 2) (E. coli, UniProt P0A940 21-810, C690S | C700S); assay: cryo-EM structure

binding result [2] | Binder | binding result [1]
 | SurA(N336C)-His10 (disulfide-crosslinked SurA–BAM complex 1) (natural protein) APQVVDKVAAVVNNGVVLESDVDGLMQSVKLNAAQARQQLPDDATLRHQIMERLIMDQIILQMGQKMGVKISDEQLDQAIANIAKQNNMTLDQMRSRLAYDGLNYNTYRNQIRKEMIISEVRNNEVRRRITILPQEVESLAQQVGNQNDASTELNLSHILIPLPENPTSDQVNEAESQARAIVDQARNGADFGKLAIAHSADQQALNGGQMGWGRIQELPGIFAQALSTAKKGDIVGPIRSGVGFHILKVNDLRGESKNISVTEVHARHILLKPSPIMTDEQARVKLEQIAADIKSGKTTFAAAAKEFSQDPGSACQGGDLGWATPDIFDPAFRDALTRLNKGQMSAPVHSSFGWHLIELLDTRNVDKTDAAQKDRAYRMLMNRKFSEEAASWMQEQRASAYVKILSN | binds
binds | SurA(I297C)-His10 (disulfide-crosslinked SurA–BAM complex 2) (natural protein) APQVVDKVAAVVNNGVVLESDVDGLMQSVKLNAAQARQQLPDDATLRHQIMERLIMDQIILQMGQKMGVKISDEQLDQAIANIAKQNNMTLDQMRSRLAYDGLNYNTYRNQIRKEMIISEVRNNEVRRRITILPQEVESLAQQVGNQNDASTELNLSHILIPLPENPTSDQVNEAESQARAIVDQARNGADFGKLAIAHSADQQALNGGQMGWGRIQELPGIFAQALSTAKKGDIVGPIRSGVGFHILKVNDLRGESKNISVTEVHARHILLKPSPCMTDEQARVKLEQIAADIKSGKTTFAAAAKEFSQDPGSANQGGDLGWATPDIFDPAFRDALTRLNKGQMSAPVHSSFGWHLIELLDTRNVDKTDAAQKDRAYRMLMNRKFSEEAASWMQEQRASAYVKILSN | 
